Where two headings read alike, the source gives them in different places.
T1: human LIV-1 (human, UniProt Q13433 29-755)
T1 sequence (looked up): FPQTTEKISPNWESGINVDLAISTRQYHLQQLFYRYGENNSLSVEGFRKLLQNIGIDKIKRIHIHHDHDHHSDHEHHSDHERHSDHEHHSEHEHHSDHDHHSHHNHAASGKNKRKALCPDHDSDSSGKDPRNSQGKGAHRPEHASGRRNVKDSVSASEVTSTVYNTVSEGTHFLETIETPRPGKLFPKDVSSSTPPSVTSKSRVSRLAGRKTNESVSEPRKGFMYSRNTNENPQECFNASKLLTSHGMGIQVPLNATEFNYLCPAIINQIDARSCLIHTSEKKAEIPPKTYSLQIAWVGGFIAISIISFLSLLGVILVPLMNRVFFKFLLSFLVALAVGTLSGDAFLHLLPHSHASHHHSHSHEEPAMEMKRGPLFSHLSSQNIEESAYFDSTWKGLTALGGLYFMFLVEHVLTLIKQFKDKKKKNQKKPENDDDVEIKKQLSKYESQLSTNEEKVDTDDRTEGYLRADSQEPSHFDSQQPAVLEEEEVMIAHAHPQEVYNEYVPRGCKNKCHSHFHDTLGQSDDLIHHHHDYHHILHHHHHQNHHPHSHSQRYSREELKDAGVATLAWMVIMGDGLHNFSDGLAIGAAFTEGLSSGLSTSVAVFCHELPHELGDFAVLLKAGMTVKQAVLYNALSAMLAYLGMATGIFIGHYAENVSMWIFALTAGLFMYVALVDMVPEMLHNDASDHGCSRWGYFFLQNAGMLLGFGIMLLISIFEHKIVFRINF

T2: rat LIV-1 (rat, UniProt Q4V887 21-741)
T2 construct: whole, on cells
T2 sequence (looked up): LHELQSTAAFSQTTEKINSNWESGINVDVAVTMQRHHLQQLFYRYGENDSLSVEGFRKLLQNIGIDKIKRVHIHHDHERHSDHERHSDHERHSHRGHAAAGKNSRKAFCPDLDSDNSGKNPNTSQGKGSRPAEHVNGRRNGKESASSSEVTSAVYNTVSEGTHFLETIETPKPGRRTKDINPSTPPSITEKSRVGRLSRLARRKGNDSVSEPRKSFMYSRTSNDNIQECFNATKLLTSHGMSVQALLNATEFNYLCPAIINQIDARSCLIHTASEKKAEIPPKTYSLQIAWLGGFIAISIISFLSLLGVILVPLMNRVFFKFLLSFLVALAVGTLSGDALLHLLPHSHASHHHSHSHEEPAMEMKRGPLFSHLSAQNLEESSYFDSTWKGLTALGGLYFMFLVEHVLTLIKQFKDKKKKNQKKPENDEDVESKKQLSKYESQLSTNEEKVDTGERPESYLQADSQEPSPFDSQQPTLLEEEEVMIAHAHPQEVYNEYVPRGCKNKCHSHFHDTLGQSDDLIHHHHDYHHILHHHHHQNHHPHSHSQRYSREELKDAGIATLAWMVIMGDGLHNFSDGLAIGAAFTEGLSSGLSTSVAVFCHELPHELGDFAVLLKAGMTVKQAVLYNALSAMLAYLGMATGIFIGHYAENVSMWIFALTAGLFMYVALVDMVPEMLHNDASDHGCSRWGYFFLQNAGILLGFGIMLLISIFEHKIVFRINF

T3: mouse LIV-1 (mouse, UniProt Q8C145 21-765)
T3 construct: whole, on cells
T3 sequence (looked up): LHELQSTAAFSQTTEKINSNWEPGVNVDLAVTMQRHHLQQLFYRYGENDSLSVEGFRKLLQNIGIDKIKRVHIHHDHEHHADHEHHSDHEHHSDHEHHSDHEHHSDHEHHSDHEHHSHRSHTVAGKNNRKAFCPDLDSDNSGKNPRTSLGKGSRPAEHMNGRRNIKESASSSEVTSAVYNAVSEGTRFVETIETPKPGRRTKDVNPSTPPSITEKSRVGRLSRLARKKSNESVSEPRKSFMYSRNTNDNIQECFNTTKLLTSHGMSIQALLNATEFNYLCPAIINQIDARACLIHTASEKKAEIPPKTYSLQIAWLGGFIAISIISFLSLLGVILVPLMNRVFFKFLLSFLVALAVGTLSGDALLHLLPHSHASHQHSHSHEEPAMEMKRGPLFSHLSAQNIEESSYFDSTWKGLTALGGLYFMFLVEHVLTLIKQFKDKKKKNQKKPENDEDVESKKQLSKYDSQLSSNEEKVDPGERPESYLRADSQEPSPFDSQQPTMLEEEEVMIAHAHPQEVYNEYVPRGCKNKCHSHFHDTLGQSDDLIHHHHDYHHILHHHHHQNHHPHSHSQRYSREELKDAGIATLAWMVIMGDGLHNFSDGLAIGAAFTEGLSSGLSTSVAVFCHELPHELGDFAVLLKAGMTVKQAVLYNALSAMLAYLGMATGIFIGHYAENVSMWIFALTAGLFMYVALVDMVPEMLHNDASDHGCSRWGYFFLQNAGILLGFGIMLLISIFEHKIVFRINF


Assays:
[1] = molecular target: T1, human LIV-1; experiment: cell-based or functional assay
[2] = molecular target: T2, rat LIV-1; experiment: FACS, HEK293/Rat_LIV-1 cells
Protocol: (§1) Humanized antibodies 5D6B10.z7, 124H4D11.p2.z4 and 290F10G10.p1.z2 were selected for further testing. In this example, FACS cross binding of these selected antibodies to LIV-1 of different species were assessed using flow cytometry.
(§2) Cell based binding of optimal leads to different species LIV-1 expressing cells were assessed using flow cytometry. Briefly, the cells were incubated with optimal leads (from 100 nM, 6 folds dilution, 8 points). After incubation at 4° C. for 60 minutes, the cells were washed with 2% FBS/PBS buffer twice, then stained with fluorescent conjugated secondary antibody at 4° C. for 30 minutes. After that the cells were washed twice and resuspended in 80 μL of 2% FBS/PBS buffer. Fluorescent signal of binding was detected using Agilent. The EC50 was calculated using the GraphPad Software (LaJolla, CA).

[3] = molecular target: T4, cynomolgus LIV-1 (cynomolgus, UniProt A0A2K5WH46 30-741); experiment: FACS, HEK293/Cyno_LIV-1 cells
Protocol: as §2
Target sequence in this assay (A0A2K5WH46 entry or part of it): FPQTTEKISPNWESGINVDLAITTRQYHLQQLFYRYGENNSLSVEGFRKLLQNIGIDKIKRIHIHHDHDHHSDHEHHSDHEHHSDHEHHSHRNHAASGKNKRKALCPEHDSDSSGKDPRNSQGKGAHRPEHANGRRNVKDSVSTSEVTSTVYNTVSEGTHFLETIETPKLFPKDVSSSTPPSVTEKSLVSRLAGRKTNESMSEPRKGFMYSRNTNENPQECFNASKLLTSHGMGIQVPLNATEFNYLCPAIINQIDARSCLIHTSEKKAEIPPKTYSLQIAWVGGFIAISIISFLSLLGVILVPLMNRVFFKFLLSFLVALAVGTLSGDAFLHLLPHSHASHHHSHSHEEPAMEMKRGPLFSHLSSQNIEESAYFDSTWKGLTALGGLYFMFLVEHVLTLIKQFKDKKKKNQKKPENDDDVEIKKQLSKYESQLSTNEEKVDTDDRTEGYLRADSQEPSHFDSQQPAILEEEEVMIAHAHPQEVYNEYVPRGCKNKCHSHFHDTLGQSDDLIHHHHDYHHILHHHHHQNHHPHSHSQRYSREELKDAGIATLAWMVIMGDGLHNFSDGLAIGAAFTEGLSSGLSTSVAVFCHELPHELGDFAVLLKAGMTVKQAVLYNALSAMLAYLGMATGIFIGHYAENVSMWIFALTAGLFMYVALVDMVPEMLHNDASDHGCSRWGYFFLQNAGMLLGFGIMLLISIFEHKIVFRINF

[4] = molecular target: T3, mouse LIV-1; experiment: FACS, HEK293/Mouse_LIV-1 cells
Protocol: as §1, §2

[5] = molecular target: rhesus LIV-1 (rhesus, UniProt H9FSJ2 30-735); experiment: FACS, HEK293/Rhe_LIV-1 cells
Sequence of rhesus LIV-1 (H9FSJ2 entry or part of it): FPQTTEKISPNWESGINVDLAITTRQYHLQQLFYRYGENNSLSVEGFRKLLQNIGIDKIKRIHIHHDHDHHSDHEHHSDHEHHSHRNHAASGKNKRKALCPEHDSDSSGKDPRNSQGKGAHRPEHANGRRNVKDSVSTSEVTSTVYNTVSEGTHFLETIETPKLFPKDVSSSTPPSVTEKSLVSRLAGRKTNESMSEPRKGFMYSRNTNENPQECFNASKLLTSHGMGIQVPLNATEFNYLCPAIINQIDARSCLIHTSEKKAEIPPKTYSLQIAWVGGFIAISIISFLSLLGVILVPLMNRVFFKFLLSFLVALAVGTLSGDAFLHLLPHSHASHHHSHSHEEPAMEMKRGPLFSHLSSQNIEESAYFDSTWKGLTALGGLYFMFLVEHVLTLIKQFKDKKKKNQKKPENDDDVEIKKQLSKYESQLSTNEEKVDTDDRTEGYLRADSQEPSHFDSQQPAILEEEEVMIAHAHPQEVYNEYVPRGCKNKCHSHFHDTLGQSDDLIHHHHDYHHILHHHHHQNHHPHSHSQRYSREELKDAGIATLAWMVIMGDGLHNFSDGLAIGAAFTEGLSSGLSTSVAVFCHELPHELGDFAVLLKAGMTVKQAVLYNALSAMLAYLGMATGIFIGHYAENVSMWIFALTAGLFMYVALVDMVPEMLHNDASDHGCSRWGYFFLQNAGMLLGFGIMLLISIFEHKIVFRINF
Protocol: as §1, §2

[6] = molecular target: T4, cynomolgus LIV-1; experiment: FACS, HEK293/Cyno_LIV-1 cells; remark: listed apart in the source
Procedure, shortened: (§3)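 HEK293 cells over-expressing human or cyno LIV-1 incubated with chimeric Abs (from 100 nM, 5-fold dilutions, 8 points) for 60 min at 4 °C, then fluorescent secondary antibody 30 min at 4 °C; washes in 2% FBS/PBS. Binding read by flow cytometry; EC50 from the titration curve.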

[7] = molecular target: T1, human LIV-1; experiment: cell-based or functional assay; remark: listed apart in the source
[8] = molecular target: T1, human LIV-1; experiment: FACS, HEK293/H_LIV-1 cells
Procedure, shortened: as §3

[9] = molecular target: T1, human LIV-1; experiment: cell-based or functional assay; remark: listed apart in the source
[10] = molecular target: T1, human LIV-1; experiment: FACS, HEK293/H_LIV-1 cells; remark: listed apart in the source
Procedure, shortened: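 HEK293 cells expressing human LIV-1 incubated with humanized antibodies (from 100 nM, 6-fold dilutions, 8 points) at 4 °C for 60 min. Bound antibody detected with a fluorescent secondary antibody (4 °C, 30 min) by flow cytometry.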

[11] = molecular target: T1, human LIV-1; experiment: FACS, HEK293/H_LIV-1 cells; remark: listed apart in the source
Protocol: (§4) Cell based binding of ADC and naked of ADC on human LIV-1 expressing cells were assessed using flow cytometry. Briefly, HEK293/H_LIV-1, both low- and high-expressing H-LIV1-positive cell lines were incubated with ADC and naked of ADC (from 100 nM, 6 folds dilution, 8 points), respectively. After incubation at 4° C. for 60 minutes, the cells were washed with FACS buffer twice, then stained with fluorescent conjugated secondary antibody at 4° C. for 30 minutes. After that the cells were washed twice and analyzed by flow cytometry.

[12] = molecular target: T1, human LIV-1; experiment: FACS, BT20/H_LIV-1 Low cells
Protocol: as §4

[13] = molecular target: T1, human LIV-1; experiment: FACS, BT20/H_LIV-1 High cells
Protocol: as §4

[14] = molecular target: T4, cynomolgus LIV-1; experiment: FACS, HEK293/Cyno_LIV-1 cells; remark: listed apart in the source
Target sequence in this assay (A0A2K5WH46 entry or part of it): as the sequence (A0A2K5WH46 entry or part of it) above

[15] = molecular target: T1, human LIV-1; experiment: cell-based or functional assay; remark: listed apart in the source

Top (MFI) [2] | EC50 [3] | Top (MFI) [3] | Top (MFI) [4] | EC50 [5] | Top (MFI) [5] | EC50 [10] | Top (MFI) [10] | EC50 [11] | Top (MFI) [11] | EC50 [12] | Top (MFI) [12] | binding result [2] | EC50 [13] | Top (MFI) [13] | EC50 [14] | Top (MFI) [14] | binding result [4] | Internalization EC50 [15] | Internalization Top (MFI) [15] | Binder | further results
6820 MFI | 0.26 nM | 1560 MFI | 5550 MFI | 0.22 nM | 5270 MFI | – | – | – | – | – | – | – | – | – | – | – | – | – | – | 290F10G10 (antibody, V domains shown, Tested as chimeric antibody) VH: IQLQQSGAELARPGASVKLSCKASGYTFTSYWIHWVKERPGQGLEWIGTIYPGDGDTRSTQKFKDKATVTAEKSSSTVYMQLSSLASEDSAVYYCTRSLIHDDYDKYYFDYWGQGTTLTVSS VL: DIQMTQSPSSLSASLGGKVTITCKARQDINKYIAWYQHKPGKGPRLLIHYTSILQPGIPSRFSGSGSGRDYSFSISNLEPEDIATYYCLQYDYFFTFGSGTKLEIK | Internalization EC50 [1]: 3.5 nM; Internalization Top (RFU) [1]: 298000 RFU; EC50 [2]: 72.2 nM; EC50 [4]: 51.1 nM; EC50 [6]: 0.53 nM; Top (MFI) [6]: 2940 MFI; Cell viability(%) [7]: 3.46%; Cytotoxicity IC50 [7]: 1.33 nM; EC50 [8]: 0.38 nM; Top (MFI) [8]: 9570 MFI; ADCC reporter EC50 [9]: 0.4 nM; ADCC reporter Top (RFU) [9]: 177000 RFU
255 MFI | 0.55 nM | 13900 MFI | 162 MFI | 0.3 nM | 41000 MFI | 0.22 nM | 50700 MFI | 0.69 nM | 102000 MFI | 0.51 nM | 34700 MFI | no binding (tested: 100 nM) | 1.06 nM | 152000 MFI | 0.19 nM | 20400 MFI | no binding (tested: 100 nM) | 5.7 nM | 59100 MFI | 5D6B10.Z7 (antibody, V domains shown) VH: QVQLVQSGGGVVQPGRSLRLSCTVSGFSLTTYGIHWVRQSPGKGLEWLGVIWTGGTTDYNAAFISRLTISKDNSKSTVYFQMNSLQAEDTAIYYCARGPSSYWGQGTLVTVSS VL: EIVMTQSPATLSVSPGERATLSCKASQNVDTNVVWYQQKPGQSPRALIYSASYRYSGVPARFSGSGSGTEFTLTISSLQSEDFAVYFCQQYNNYPWTFGQGTKVEIK | –
106 MFI | 0.09 nM | 1420 MFI | 107 MFI | 0.07 nM | 5420 MFI | 0.13 nM | 16900 MFI | 0.16 nM | 19900 MFI | 0.17 nM | 3460 MFI | no binding (tested: 100 nM) | 0.15 nM | 20800 MFI | 0.13 nM | 8840 MFI | no binding (tested: 100 nM) | 5.6 nM | 139000 MFI | 124H4D11.p2.z4 (antibody, V domains shown) VH: QVQLVQSGAEVVKPGASVKVSCKASGFNIKDYYMHWVRQAPGQGLEWIGWIDPENDDTEYDPKFQGRVTMTADTSTSTVYMELSSLRSEDTAVYYCAARYYAFDYWGQGTMVTVSS VL: DVLMTQSPLSLPVTLGQPASISCRSSQSIVHSNANTYLEWYLQRPGQSPRLLIYKVSNRFSGVPDRFSGSGSGTDFTLKISRVEAEDVGVYYCFQGSQVPPTFGQGTKLEIK | –
